Molecular target: mitoribosome large subunit (mtLSU, 39S) (human (endogenous in HEK293T and 143B))
Test: co-sedimentation

- percent of total MTG1 co-sedimenting with mtLSU markers: 10%
Substance: MTG1 (human mitochondrial ribosome assembly GTPase), endogenous (natural protein)

From publication PMC6144824
